From US20150355199A1 (ROCHE DIAGNOSTICS OPERATIONS, published 2015) come the findings set out here.

Assay [1] concerns the target T1, native human complement factor H (CFH) (human, UniProt P08603 19-1231).
T1 construct: Native CFH; also called native CFH; serum-purified CFH
In words: indirect ELISA, hybridoma supernatant on CFH captured by biotinylated L20/3 Fab on streptavidin plates. The method, then: (§1) MAb production in hybridoma culture supernatants was assayed by indirect enzyme-linked immunosorbent assay (ELISA). Streptavidin coated microtiter plates (Microcoat, Bernried, Germany) were incubated with biotinylated Fab fragment of the MAB<CFH/CFHR1>M-L20/3 monoclonal antibody diluted 1:2000 in incubation buffer (phosphate buffered saline pH 7.3, 0.5% Byco C) for 1 h at room temperature. After washing with washing buffer (0.9% NaCl solution, 0.05% Tween 20) the microtiter plates were incubated for 1 h at room temperature with 100 ng/ml purified recombinant CFHR1 and CFH protein diluted in incubation buffer. The microtiter plates were washed again and hybridoma supernatants were added to the coated well and incubated for 1 h at room temperature. After washing, the bound monoclonal antibodies (MAbs) were detected by a 1 h incubation with goat anti-mouse IgG peroxidase conjugate (Calbiochem, Germany) diluted 1:5000 in incubation buffer followed by substrate reaction with ABTS solution (Roche, Germany) after further washing step. The color change was measured in an ELISA reader at 405/490 nm after 20-30 min. Some CFHR1-specific clones without any crossreactivity against CFH were selected.
In general terms: In an ELISA, binding on a coated surface is turned into a signal by an enzyme label.

In assay [2] the target is T2, recombinant CFHR1-1-5 (tag-less, full-length mature human complement factor H-related protein 1) (human, UniProt Q03591 19-330).
T2 construct: also called recCFHR1
T2 sequence: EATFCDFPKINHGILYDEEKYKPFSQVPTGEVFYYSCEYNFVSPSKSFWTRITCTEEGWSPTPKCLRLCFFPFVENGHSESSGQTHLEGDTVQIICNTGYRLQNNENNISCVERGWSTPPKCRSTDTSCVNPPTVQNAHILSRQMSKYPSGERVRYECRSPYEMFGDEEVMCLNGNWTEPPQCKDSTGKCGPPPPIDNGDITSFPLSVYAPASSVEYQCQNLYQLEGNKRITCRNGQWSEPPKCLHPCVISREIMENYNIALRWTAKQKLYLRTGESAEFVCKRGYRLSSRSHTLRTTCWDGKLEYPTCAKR
In words: indirect ELISA, hybridoma supernatant on CFHR1 captured by biotinylated L20/3 Fab on streptavidin plates. The procedure: as §1

For assay [3], the target named is T3, CFHR2-GS-Avi-GS-His8 (human).
T3 construct: Tagged recombinant protein from HEK293 cells; also called recombinant CFHR2
T3 chain: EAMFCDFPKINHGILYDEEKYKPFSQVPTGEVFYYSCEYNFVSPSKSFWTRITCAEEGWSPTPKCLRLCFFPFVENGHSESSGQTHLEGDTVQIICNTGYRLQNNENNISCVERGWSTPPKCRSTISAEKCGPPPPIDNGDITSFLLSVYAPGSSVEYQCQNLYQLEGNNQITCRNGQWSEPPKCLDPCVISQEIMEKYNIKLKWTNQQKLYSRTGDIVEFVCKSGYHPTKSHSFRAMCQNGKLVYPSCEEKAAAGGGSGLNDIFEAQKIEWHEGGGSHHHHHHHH
In words: sandwich ECLIA, L20/3 Fab-Bi capture + 4.2.53-Ru detection (signal needs both antibodies); sample 50 µg/ml recombinant CFHR2.

Assay [4] concerns the target T3, CFHR2-GS-Avi-GS-His8. In words: sandwich ECLIA, L20/3 Fab-Bi capture + 4.2.53-Ru detection (signal needs both antibodies); sample 100 µg/ml recombinant CFHR2.
The target in assay [5] is T2, recombinant CFHR1-1-5 (tag-less, …). In words: SPR (BiaCore), antibody captured by rabbit anti-mouse IgG on CM5 chip, antigen in solution. The method, then:
(§2) The antibodies MAB<CFH/CFHR1>M-L20/3, MAB<CFHR1>M-442127, MAB<CFHR1>M-4.1.3 and MAB<CFHR1>M-5.1.5 were analyzed on the BiaCore. The chip CM5 coated with a rabbit anti-Mouse IgG was used to bind the purified monoclonal mouse antibodies. In the next step native CFH or the recombinant CFHR1, CFHR2, CFHR3, CFHR4B or CFHR5 proteins according to SEQ ID No.: 9 to 13 were added to determine the binding affinities of the different antibodies.
On the technique in general: SPR reads the build-up and loss of mass on a sensor chip optically.

Assay [6] addresses T3, CFHR2-GS-Avi-GS-His8. Described as above. The method, then: as §2
The next assay addresses T4, CFHR5-GS-Avi-GS-His8 (human, UniProt Q9BXR6 19-569).
T4 construct: Tagged recombinant protein from HEK293 cells; also called recombinant CFHR5
T4 sequence: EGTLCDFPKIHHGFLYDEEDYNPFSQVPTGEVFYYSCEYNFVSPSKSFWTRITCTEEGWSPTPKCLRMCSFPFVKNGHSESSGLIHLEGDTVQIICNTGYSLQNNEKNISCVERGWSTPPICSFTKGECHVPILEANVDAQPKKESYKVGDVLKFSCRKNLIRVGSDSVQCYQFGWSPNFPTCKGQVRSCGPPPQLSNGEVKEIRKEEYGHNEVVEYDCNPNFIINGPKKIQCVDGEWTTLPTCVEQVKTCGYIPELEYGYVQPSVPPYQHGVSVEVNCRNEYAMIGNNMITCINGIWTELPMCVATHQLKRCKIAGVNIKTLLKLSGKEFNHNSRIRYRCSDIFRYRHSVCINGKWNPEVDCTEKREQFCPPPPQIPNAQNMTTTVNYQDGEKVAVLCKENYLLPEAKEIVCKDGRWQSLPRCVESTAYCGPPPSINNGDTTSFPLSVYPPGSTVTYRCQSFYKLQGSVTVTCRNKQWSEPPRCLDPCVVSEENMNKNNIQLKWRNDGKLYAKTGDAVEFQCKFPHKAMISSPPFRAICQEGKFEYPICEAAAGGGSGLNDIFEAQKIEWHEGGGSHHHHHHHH
In words: SPR (BiaCore), antibody captured by rabbit anti-mouse IgG on CM5 chip; n.d. = not detectable. The method, then: as §2

In another assay the target is T5, CFHL1-GS-Avi-GS-His8 (human, UniProt P08603 19-445).
T5 construct: also called complement factor H isoform 2
The assay is described as above. The procedure: as §2

For assay [7], the target named is T1, native human complement factor H (CFH). The assay is described as above. The method, then:
as §2

The target in a further assay is T6, CFHR3-GS-Avi-GS-His8 (human, UniProt Q02985 19-330).
T6 construct: Tagged recombinant protein from HEK293 cells; also called recombinant CFHR3
T6 sequence: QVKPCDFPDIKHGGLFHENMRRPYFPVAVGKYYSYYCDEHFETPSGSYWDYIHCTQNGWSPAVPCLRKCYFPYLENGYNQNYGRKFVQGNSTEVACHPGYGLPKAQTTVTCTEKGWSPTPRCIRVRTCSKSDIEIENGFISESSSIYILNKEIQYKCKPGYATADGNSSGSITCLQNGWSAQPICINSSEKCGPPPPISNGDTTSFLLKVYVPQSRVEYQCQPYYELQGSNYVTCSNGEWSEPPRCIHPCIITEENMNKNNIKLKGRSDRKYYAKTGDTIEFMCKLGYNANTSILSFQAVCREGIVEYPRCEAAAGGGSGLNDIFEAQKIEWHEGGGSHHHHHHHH
The assay is described as above. The method, then: as §2

The target in assay [8] is T7, CFHR4-GS-Avi-GS-His8 (CFHR4 Variant B) (human).
T7 construct: Tagged recombinant protein from HEK293 cells; also called CFHR4B; recombinant CFHR4B
T7 chain: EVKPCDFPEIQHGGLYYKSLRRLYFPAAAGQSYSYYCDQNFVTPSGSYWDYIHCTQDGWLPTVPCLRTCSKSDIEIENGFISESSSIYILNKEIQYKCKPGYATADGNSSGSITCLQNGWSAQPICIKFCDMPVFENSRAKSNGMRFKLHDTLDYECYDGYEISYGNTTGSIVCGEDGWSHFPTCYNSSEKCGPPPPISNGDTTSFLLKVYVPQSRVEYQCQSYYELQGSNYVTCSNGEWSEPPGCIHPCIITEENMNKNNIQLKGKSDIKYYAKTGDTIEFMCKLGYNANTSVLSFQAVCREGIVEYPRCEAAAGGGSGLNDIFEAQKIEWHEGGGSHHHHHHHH
Described as above. The procedure:
as §2

The target in assay [9] is T3, CFHR2-GS-Avi-GS-His8. In words: sandwich ECLIA, L20/3 Fab-Bi capture + 4.2.74-Ru detection (signal needs both antibodies); sample 50 µg/ml recombinant CFHR2.
Assay [10] addresses T3, CFHR2-GS-Avi-GS-His8. In words: sandwich ECLIA, L20/3 Fab-Bi capture + 4.2.74-Ru detection (signal needs both antibodies); sample 100 µg/ml recombinant CFHR2.
Assay [11] has as its target T3, CFHR2-GS-Avi-GS-His8. In words: sandwich ECLIA, L20/3 Fab-Bi capture + 5.3.23-Ru detection (signal needs both antibodies); sample 50 µg/ml recombinant CFHR2.
The target in assay [12] is T3, CFHR2-GS-Avi-GS-His8. In words: sandwich ECLIA, L20/3 Fab-Bi capture + 5.3.23-Ru detection (signal needs both antibodies); sample 100 µg/ml recombinant CFHR2.

B1: MAB<CFHR1>M-4.2.53 (antibody, V domains shown)
VH: QVQLKESGPGLVAPSQSLSITCTVSGFSLTSYGVHWVRQPPGKGLEWLGVIWAGGNTDYISALMSRLSISKDNSKSQVFLKINRLQTDDTAVYYCARDHYDGYYMEYWGQGTSVTVSP
VL: DIQMTQSPSSLSASLGGKVTITCKASQDINKYLAWYQHKPGKGPRLLIHYTFTLQPGIPSRFSGGGSGRDYSFNINNLEPEDIATYYCLQYDNLYTFGGGTKLEIKR
notes: In-house mouse monoclonal IgG; also called MAB<CFHR1>M-4.2.53-Ru
For the molecule B1, the values for the binding result in [1] and in [2] were “no binding (tested: 100 ng/ml CFH)” and “binds”, respectively. Besides, the values for the Measured CFHR1 with CFHR2-GS-Avi-GS-His8 [3] and with CFHR2-GS-Avi-GS-His8 [4] were 0 µg/mL and 0.09 µg/mL, respectively.

B2: MAB<CFHR1>M-4.1.3 (antibody, V domains shown)
VH: DVQLQESGPGLVKPSQSLSLTCTVTGYSITSEYAWNWIRQFPGNKLEWMAYINSSGKSSYNPSLKSRISVTRDTSKNQFFLQLNSVTTEDTATYYCAREGYGNYPAWFAYWGQGTLVTVSA
VL: DIQMTQTTSSLSASLGDRVTISCSASQDINNYLNWYQQKPDGTVKLLIYYTSNLHSGVPSRFSGSGSGTDYSLTISNLEPEDIATYFCQQYSKLPRTFGGGTKLEIKR
notes: In-house mouse monoclonal IgG; also called MAB<CFHR1>M-4.1.3-Ru
B2: the Kd in [5] is 800 pM; with CFHR2-GS-Avi-GS-His8 [6], 19000 pM. Besides, the binding result (with CFHR5-GS-Avi-GS-His8; in the assay with CFHL1-GS-Avi-GS-His8; in assay [7]; with CFHR3-GS-Avi-GS-His8; in assay [8]) was “no binding” each time.

B3: MAB<CFHR1>M-4.2.74 (antibody, V domains shown)
VH: DVRLVESGGGLVQPGGSRKLSCAASGFTFSSFGMHWVRQAPEKGLEWVAYISSGSSTIYYADTVKGRFTISRDNPKNTLFLQMTSLRSEDTAMYYCARWGNSYAMDYWGQGTSVTVSS
VL: DIVMTQSPSSLTVTAGEKVTMSCKSSQSLLNRGNQKNYLTWYQQKPGQPPKLLIYWASTRESGVPDRFTGSGSGTDFTLTISSVLAEDLAVYYCQIAYSSPFTFGSGTKLEIKR
notes: In-house mouse monoclonal IgG; also called MAB<CFHR1>M-4.2.74-Ru
Take B3: the binding result in assay [1] is listed as “no binding (tested: 100 ng/ml CFH)”; in assay [2], “binds”. For the same molecule, the Measured CFHR1 in the assay with CFHR2-GS-Avi-GS-His8 [9] and in the assay with CFHR2-GS-Avi-GS-His8 [10] was 0 µg/mL throughout.

B4: MAB<CFHR1>M-5.1.5 (antibody, V domains shown)
VH: EVQLVESGGDLVKPGGSLKLSCAASGFTFSSYDMSWVRQTPDKRLEWVATISSGGSNTYYPDSVKGRFTISRDNAKNTLYLQMSSLKSEDTAMYYCARQGYYYGSSYYAMDYWGQGTSVTVSS
VL: QIVLTQSPAIMSASPGEKVTMTCRASSSVSSSYLHWYQQKPGSSPKLWIYITSSLASGVPARFSGSGSGTSYSLTISSVEAEDGATYYCQQYHSSPYTFGSGTKLEIK
modifications: In the ECLIA sandwich assays the IgG was ruthenylated (Ru-(bpy)2-bpyCO-OSu). The BiaCore results used purified antibody with no label mentioned.
notes: It was used ruthenylated (-Ru) in the sandwich ECLIA; also called clone 5.1.5; MAK<CFHR1>M-5.1.5; copies: 2 + 2
As for B4, the Kd in assay [5] is 10 pM; with CFHR2-GS-Avi-GS-His8 [6], 300 pM. The binding result (in the assay with CFHR5-GS-Avi-GS-His8; with CFHL1-GS-Avi-GS-His8; in assay [7]; with CFHR3-GS-Avi-GS-His8; in assay [8]) was “no binding” in each case.

B5: MAB<CFHR1>M-5.3.23 (antibody, V domains shown)
VH: EVKLEESGGGLVQPGGSMKLSCDGSGFTFSDAWMGWVRQSPEKGLEWVSEIRNRANNHETHYAESVKGRFTISRDDSKSRVYLQMNSLRAEDTGIYYCNGRYYDSYWFLDVWGAGTTVTVSS
VL: NIVMTQTPKFLPVSVGDRVTMTCKASQSVGYNVAWFQQKPGQSPKLLIYYASNRYTGVPDRFTGSGGGTDFTFTISSVQVEDLAVYFCQQHYISPTFGSGTKLEIKR
notes: In-house mouse monoclonal IgG; also called MAB<CFHR1>M-5.3.23-Ru
B5: the binding result in assay [1] is recorded as “no binding (tested: 100 ng/ml CFH)”; in assay [2], “binds”. The Measured CFHR1 with CFHR2-GS-Avi-GS-His8 [11] and with CFHR2-GS-Avi-GS-His8 [12] was 0 µg/mL throughout.

Usually Kd stands for the free concentration of one partner at which half of the binding sites on the other are occupied at equilibrium, for simple one-to-one binding.
